Data published in the RNAGym collection of RNA variant scans (doi:10.1093/molbev/msab373).

B1: Azoarcus group I ribozyme (parent)
chain: GUGCCUUGCGCCGGGAAACCACGCAAGGGAUGGUGUCAAAUUCGGCGAAACCUAAGCGCCCGCCCGGGCGUAUGGCAACGCCGAGCCAAGCUUCGGCGCCUGCGCCGAUGAAGGUGUAGAGACUAGACGGCACCCACCUAAGGCAAACGCUAUGGUGAAGGCAUAGUCCAGGGAGUGGCGAAAGUCACACAAACCGG

Variants of: B1
Test: reverse-splicing fitness (ratio to wild type); higher = more active; in vitro selection; Mg2+ level not given
Summary of the method: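 An in vitro group I ribozyme library with randomized positions was T7-transcribed and gel-purified. In triplicate, 10 pmol RNA in EPPS pH 7.5 was reacted with 50 pmoles of a 30-nt RNA substrate for 1 h at 37 °C across several added MgCl2 levels (1–48 mM), then stopped with EDTA. Products were reverse transcribed from a substrate-complementary primer, PCR-amplified and sequenced (HiSeq 4000). Fitness is a variant's read proportion after selection over that before, normalised to wild type.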

Going from GUGCCUUGCGCCGGGAAACCACGCAAGGGAUGGUGUCAAAUUCGGCGAAACCUAAGCGCCCGCCCGGGCGUAUGGCAACGCUGAGCCAAGCUUCGGCGCCUGCGCCGAUGUAGGUGUAGCGACUAGACGGCACCCACCUAAGGCGAACGGUAUGGUGAAGGCAUAGUCAAGGGAGUGGCGAAAGUCACACAAACCGG [C82U A111U A120C A145G C150G C169A] to GUGCCUUGCGCCGGGAAACCACGCAAGGGAUGGUGUCAAAUUCGGCGAAACCUAAGCGCCCGCCCGGGCGUAUGGCAACGCUGAGCCAAGCUUCGGCGCCUGCGCCGAUGUAGGUGUAGCGACUAGACGGCACCCACCUAAGGCGAACGGUAUGGUGAAGGCAUAGUCUAGGGAGUGGCGAAAGUCACACAAACCGG [C82U A111U A120C A145G C150G C169U], the reverse-splicing fitness falls from 0.00919 to 0.00911.

Going from GUGCCUUGCGCCGGGAAACCACGCAAGGGAUGGUGUCAAAUUCGGCGAAACCUAAGCGCCCGCCCGGGCGUAUGGCAACGCUGAGCCAAGCUUCGGCGCCUGCGCCGAUGUAGGUGUAGCGACUAGACGGCACCCACCUAAGGCGAACGGUAUGGUGAAGGCAUAGUCGAGGGAGUGGCGAAAGUCACACAAACCGG [C82U A111U A120C A145G C150G C169G] to GUGCCUUGCGCCGGGAAACCACGCAAGGGAUGGUGUCAAAUUCGGCGAAACCUAAGCGCCCGCCCGGGCGUAUGGCAACGCUGAGCCAAGCUUCGGCGCCUGCGCCGAUGUAGGUGUAGCGACUAGACGGCACCCACCUAAGGCGAACGAUAUGGUGAAGGCAUAGUCGAGGGAGGGGCGAAAGUCACACAAACCGG [C82U A111U A120C A145G C150A C169G U176G], the reverse-splicing fitness falls from 0.00731 to 0.00516.

First: GUGCCUUGCGCCGGGAAACCACGCAAGGGAUGGUGUCAAAUUCGGCGAAACCUAAGCGCCCGCCCGGGCGUAUGGCAACGCUGAGCCAAGCUUCGGCGCCUGCGCCGAUGUAGGUGUAGCGACUAGACGGCACCCACCUAAGGCGAACGAUAUGGUGAAGGCAUAGUCGAGGGAGAGGCGAAAGUCACACAAACCGG [C82U A111U A120C A145G C150A C169G U176A]
Second: GUGCCUUGCGCCGGGAAACCACGCAAGGGAUGGUGUCAAAUUCGGCGAAACCUAAGCGCCCGCCCGGGCGUAUGGCAACGCUGAGCCAAGCUUCGGCGCCUGCGCCGAUGUAGGUGUAGCGACUAGACGGCACCCACCUAAGGCGAACGAUAUGGUGAAGGCAUAGUCGAGGGAGCGGCGAAAGUCACACAAACCGG [C82U A111U A120C A145G C150A C169G U176C]
The reverse-splicing fitness of the first is lower: 0.0169 for the first, 0.0229 for the second.

Compared with GUGCCUUGCGCCGGGAAACCACGCAAGGGAUGGUGUCAAAUUCGGCGAAACCUAAGCGCCCGCCCGGGCGUAUGGCAACGCUGAGCCAAGCUUCGGCGCCUGCGCCGAUGUAGGUGUAGCGACUAGACGGCACCCACCUAAGGCGAACGUUAUGGUGAAGGCAUAGUCAAGGGAGCGGCGAAAGUCACACAAACCGG [C82U A111U A120C A145G C150U C169A U176C], GUGCCUUGCGCCGGGAAACCACGCAAGGGAUGGUGUCAAAUUCGGCGAAACCUAAGCGCCCGCCCGGGCGUAUGGCAACGCUGAGCCAAGCUUCGGCGCCUGCGCCGAUGUAGGUGUAGCGACUAGACGGCACCCACCUAAGGCGAACGUUAUGGUGAAGGCAUAGUCAAGGGAGAGGCGAAAGUCACACAAACCGG [C82U A111U A120C A145G C150U C169A U176A] is higher in reverse-splicing fitness: 0.0136 for the first, 0.017 for the second.

First: GUGCCUUGCGCCGGGAAACCACGCAAGGGAUGGUGUCAAAUUCGGCGAAACCUAAGCGCCCGCCCGGGCGUAUGGCAACGCUGAGCCAAGCUUCGGCGCCUGCGCCGAUGUAGGUGUAGCGACUAGACGGCACCCACCUAAGGCGAACGGUAUGGUGAAGGCAUAGUCAAGGGAGGGGCGAAAGUCACACAAACCGG [C82U A111U A120C A145G C150G C169A U176G]
Second: GUGCCUUGCGCCGGGAAACCACGCAAGGGAUGGUGUCAAAUUCGGCGAAACCUAAGCGCCCGCCCGGGCGUAUGGCAACGCUGAGCCAAGCUUCGGCGCCUGCGCCGAUGUAGGUGUAGCGACUAGACGGCACCCACCUAAGGCGAACGGUAUGGUGAAGGCAUAGUCAAGGGAGAGGCGAAAGUCACACAAACCGG [C82U A111U A120C A145G C150G C169A U176A]
The reverse-splicing fitness of the first is lower: 0.00845 for the first, 0.0133 for the second.

Going from GUGCCUUGCGCCGGGAAACCACGCAAGGGAUGGUGUCAAAUUCGGCGAAACCUAAGCGCCCGCCCGGGCGUAUGGCAACGCUGAGCCAAGCUUCGGCGCCUGCGCCGAUGUAGGUGUAGCGACUAGACGGCACCCACCUAAGGCGAACGGUAUGGUGAAGGCAUAGUCAAGGGAGCGGCGAAAGUCACACAAACCGG [C82U A111U A120C A145G C150G C169A U176C] to GUGCCUUGCGCCGGGAAACCACGCAAGGGAUGGUGUCAAAUUCGGCGAAACCUAAGCGCCCGCCCGGGCGUAUGGCAACGCUGAGCCAAGCUUCGGCGCCUGCGCCGAUGUAGGUGUAGCGACUAGACGGCACCCACCUAAGGCGAACGAUAUGGUGAAGGCAUAGUCCAGGGAGAGGCGAAAGUCACACAAACCGG [C82U A111U A120C A145G C150A U176A], the reverse-splicing fitness falls from 0.0137 to 0.0105.

First: GUGCCUUGCGCCGGGAAACCACGCAAGGGAUGGUGUCAAAUUCGGCGAAACCUAAGCGCCCGCCCGGGCGUAUGGCAACGCUGAGCCAAGCUUCGGCGCCUGCGCCGAUGUAGGUGUAGCGACUAGACGGCACCCACCUAAGGCGAACGAUAUGGUGAAGGCAUAGUCCAGGGAGGGGCGAAAGUCACACAAACCGG [C82U A111U A120C A145G C150A U176G]
Second: GUGCCUUGCGCCGGGAAACCACGCAAGGGAUGGUGUCAAAUUCGGCGAAACCUAAGCGCCCGCCCGGGCGUAUGGCAACGCUGAGCCAAGCUUCGGCGCCUGCGCCGAUGUAGGUGUAGCGACUAGACGGCACCCACCUAAGGCGAACGAUAUGGUGAAGGCAUAGUCCAGGGAGCGGCGAAAGUCACACAAACCGG [C82U A111U A120C A145G C150A U176C]
The reverse-splicing fitness of the first is lower: 0.00675 for the first, 0.0207 for the second.

Variant GUGCCUUGCGCCGGGAAACCACGCAAGGGAUGGUGUCAAAUUCGGCGAAACCUAAGCGCCCGCCCGGGCGUAUGGCAACGCUGAGCCAAGCUUCGGCGCCUGCGCCGAUGUAGGUGUAGCGACUAGACGGCACCCACCUAAGGCGAACGUUAUGGUGAAGGCAUAGUCCAGGGAGUGGCGAAAGUCACACAAACCGG [C82U A111U A120C A145G C150U] has a reverse-splicing fitness of 0.0229.
